From paper PMC9482650, “Quantitative fragmentomics allow affinity mapping of interactomes” (Nature Communications, 2022)

How the values were obtained:
Test in all cases: holdup assay
Parameters in all cases: key: below the threshold = too weak to quantify, mostly under pKd 3.1 to 4
[1] = biological target: GIPC2, Q8TF65
[2] = biological target: T1, MPP7, Q5T2T1
T1 sequence (Q5T2T1 134-230, limits assumed, looked up): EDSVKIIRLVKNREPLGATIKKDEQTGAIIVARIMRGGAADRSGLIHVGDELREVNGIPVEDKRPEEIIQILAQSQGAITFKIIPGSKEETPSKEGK

[3] = biological target: GORASP2, Q9H8Y8
[4] = biological target: DLG4_2, P78352
[5] = biological target: CASK, O14936
[6] = biological target: T2, ARHGEF11, O15085
T2 sequence (O15085 42-136, limits assumed, looked up): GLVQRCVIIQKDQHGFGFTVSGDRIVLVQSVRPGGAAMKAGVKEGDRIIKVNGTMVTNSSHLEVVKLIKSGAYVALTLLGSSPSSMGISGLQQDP

[7] = biological target: T3, DLG3_3, Q92796
T3 sequence (Q92796 374-475, limits assumed, looked up): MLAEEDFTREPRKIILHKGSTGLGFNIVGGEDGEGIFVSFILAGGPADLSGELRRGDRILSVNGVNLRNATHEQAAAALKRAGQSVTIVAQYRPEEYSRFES

[8] = biological target: T4, SNTA1, Q13424
T4 sequence (Q13424 82-180, limits assumed, looked up): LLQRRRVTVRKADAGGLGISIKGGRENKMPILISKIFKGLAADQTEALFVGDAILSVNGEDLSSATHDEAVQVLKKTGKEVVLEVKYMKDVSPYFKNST

[9] = biological target: GOPC, Q9HD26
[10] = biological target: GRIP2_5, Q9C0E4
[11] = biological target: T5, DFNB31_1, Q9P202
T5 sequence (Q9P202 135-233, limits assumed, looked up): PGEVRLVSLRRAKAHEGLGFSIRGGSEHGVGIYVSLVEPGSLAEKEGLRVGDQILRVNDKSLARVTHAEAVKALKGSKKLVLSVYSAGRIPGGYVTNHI

[12] = biological target: T6, LIN7C, Q9NUP9
T6 sequence (Q9NUP9 88-185, limits assumed, looked up): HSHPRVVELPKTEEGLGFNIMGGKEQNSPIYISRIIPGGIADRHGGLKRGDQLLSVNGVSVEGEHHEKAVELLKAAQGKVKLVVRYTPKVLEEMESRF

[13] = biological target: FRMPD4, Q14CM0
[14] = biological target: T7, DFNB31_3, Q9P202
T7 sequence (Q9P202 811-907, limits assumed, looked up): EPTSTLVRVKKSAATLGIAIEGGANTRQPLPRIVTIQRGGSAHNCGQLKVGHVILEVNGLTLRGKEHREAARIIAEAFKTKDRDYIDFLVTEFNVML

[15] = biological target: Inadl_2, Q8NI35
[16] = biological target: T8, GRIP1_4, Q9Y3R0
T8 sequence (Q9Y3R0 467-571, limits assumed, looked up): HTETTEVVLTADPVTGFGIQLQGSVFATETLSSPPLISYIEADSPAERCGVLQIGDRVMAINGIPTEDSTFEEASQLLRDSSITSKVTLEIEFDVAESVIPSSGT

[17] = biological target: T9, HTRA3, P83110
T9 sequence (P83110 354-453, limits assumed, looked up): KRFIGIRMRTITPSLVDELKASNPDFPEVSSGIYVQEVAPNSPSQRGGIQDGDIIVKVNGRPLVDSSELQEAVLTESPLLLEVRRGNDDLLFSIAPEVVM

[18] = biological target: T10, PDZRN3_1, Q9UPQ7
T10 sequence (Q9UPQ7 244-349, limits assumed, looked up): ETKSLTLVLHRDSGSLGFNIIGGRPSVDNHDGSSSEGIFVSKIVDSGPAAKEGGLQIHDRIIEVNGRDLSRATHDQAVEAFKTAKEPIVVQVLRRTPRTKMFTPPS

[19] = biological target: GRID2IP_1, A4D2P6
[20] = biological target: NHERF4_2, Q86UT5
[21] = biological target: T11, LIN7B, Q9HAP6
T11 sequence (Q9HAP6 88-185, limits assumed, looked up): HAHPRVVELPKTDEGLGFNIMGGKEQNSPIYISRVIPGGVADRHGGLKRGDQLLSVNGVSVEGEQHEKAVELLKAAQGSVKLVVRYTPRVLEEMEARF

[22] = biological target: T12, SIPA1L2, Q9P2F8
T12 sequence (Q9P2F8 945-1036, limits assumed, looked up): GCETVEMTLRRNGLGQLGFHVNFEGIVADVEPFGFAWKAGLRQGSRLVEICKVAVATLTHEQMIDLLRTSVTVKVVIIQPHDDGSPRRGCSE

[23] = biological target: GORASP1, Q9BQQ3
[24] = biological target: MAGI2_4, Q86UL8
[25] = biological target: T13, GRIP1_3, Q9Y3R0
T13 sequence (Q9Y3R0 247-346, limits assumed, looked up): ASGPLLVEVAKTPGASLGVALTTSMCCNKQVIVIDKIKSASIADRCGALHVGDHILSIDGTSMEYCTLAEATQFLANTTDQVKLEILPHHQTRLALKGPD

[26] = plain residues with an end cap or a label only (N-terminal biotin on a linker: ado-ado)
[27] = modified: phospho on T at position -2 from the C-terminal residue

Chain of DLG4_2, P78352 (P78352 155-259): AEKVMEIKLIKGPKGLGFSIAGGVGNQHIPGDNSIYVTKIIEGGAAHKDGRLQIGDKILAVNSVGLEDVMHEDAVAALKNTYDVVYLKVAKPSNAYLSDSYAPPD
Chain of NHERF4_2, Q86UT5 (Q86UT5 220-308): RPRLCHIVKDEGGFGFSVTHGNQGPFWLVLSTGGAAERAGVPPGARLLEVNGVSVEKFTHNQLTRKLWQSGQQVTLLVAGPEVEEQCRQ
Chain of MAGI2_4, Q86UL8 (Q86UL8 772-865): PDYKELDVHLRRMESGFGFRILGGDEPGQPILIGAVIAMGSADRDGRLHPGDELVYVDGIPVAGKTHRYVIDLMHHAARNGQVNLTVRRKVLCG
Chain of FRMPD4, Q14CM0 (Q14CM0 67-160): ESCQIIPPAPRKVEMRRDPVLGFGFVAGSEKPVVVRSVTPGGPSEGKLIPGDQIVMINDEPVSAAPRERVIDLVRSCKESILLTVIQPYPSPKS
Chain of GRID2IP_1, A4D2P6 (A4D2P6 1-87): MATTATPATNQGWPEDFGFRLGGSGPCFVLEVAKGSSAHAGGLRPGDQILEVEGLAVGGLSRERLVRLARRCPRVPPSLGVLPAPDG
Chain of GORASP1, Q9BQQ3 (Q9BQQ3 1-208): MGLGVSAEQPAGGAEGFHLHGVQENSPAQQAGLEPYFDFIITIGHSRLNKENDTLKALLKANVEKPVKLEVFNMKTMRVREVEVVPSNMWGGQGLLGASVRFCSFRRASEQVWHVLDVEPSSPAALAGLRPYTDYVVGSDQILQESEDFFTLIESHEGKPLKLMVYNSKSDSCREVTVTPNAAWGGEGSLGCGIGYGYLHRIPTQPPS
Chain of CASK, O14936 (O14936 487-570): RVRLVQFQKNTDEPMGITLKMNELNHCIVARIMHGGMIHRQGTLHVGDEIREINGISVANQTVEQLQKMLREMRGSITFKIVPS
Chain of GIPC2, Q8TF65 (Q8TF65 112-203): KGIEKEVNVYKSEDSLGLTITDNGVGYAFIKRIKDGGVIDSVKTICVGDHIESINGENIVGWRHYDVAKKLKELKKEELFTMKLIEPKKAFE
Chain of Inadl_2, Q8NI35 (Q8NI35 238-335): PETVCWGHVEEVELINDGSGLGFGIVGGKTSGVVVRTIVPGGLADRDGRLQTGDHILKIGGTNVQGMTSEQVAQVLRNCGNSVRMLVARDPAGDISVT
Chain of GRIP2_5, Q9C0E4 (Q9C0E4 544-642): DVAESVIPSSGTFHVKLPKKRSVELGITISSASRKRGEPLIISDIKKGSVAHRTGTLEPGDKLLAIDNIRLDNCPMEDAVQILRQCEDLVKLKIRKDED

SAGADSETHC [SLCO1B1, Q9Y6L6]
pKd [1, 26]: 3.71
pKd [2, 26]: below the threshold
pKd [3, 26]: below the threshold
pKd [4, 26]: below the threshold
pKd [5, 26]: below the threshold
pKd [6, 26]: below the threshold
pKd [7, 26]: below the threshold
pKd [8, 26]: below the threshold
pKd [9, 26]: below the threshold
pKd [10, 26]: below the threshold
pKd [11, 26]: below the threshold
pKd [12, 26]: 3.93
pKd [13, 26]: below the threshold
pKd [14, 26]: 3.55
pKd [15, 26]: below the threshold
pKd [16, 26]: below the threshold
pKd [17, 26]: below the threshold
pKd [18, 26]: below the threshold
pKd [19, 26]: below the threshold
pKd [20, 26]: below the threshold
pKd [21, 26]: 3.69
pKd [22, 26]: 3.49
pKd [23, 26]: below the threshold
pKd [24, 26]: below the threshold
pKd [25, 26]: below the threshold

WAKEKQHTRL [SLC17A1, Q14916]
pKd [1, 26]: below the threshold
pKd [2, 26]: below the threshold
pKd [3, 26]: below the threshold
pKd [4, 26]: 4.04
pKd [5, 26]: below the threshold
pKd [6, 26]: 4.25
pKd [7, 26]: below the threshold
pKd [8, 26]: 3.77
pKd [9, 26]: 4.91
pKd [10, 26]: below the threshold
pKd [11, 26]: 3.65
pKd [12, 26]: below the threshold
pKd [13, 26]: 3.97
pKd [14, 26]: below the threshold
pKd [15, 26]: below the threshold
pKd [16, 26]: below the threshold
pKd [17, 26]: below the threshold
pKd [18, 26]: 3.79
pKd [19, 26]: below the threshold
pKd [20, 26]: below the threshold
pKd [21, 26]: below the threshold
pKd [22, 26]: below the threshold
pKd [23, 26]: below the threshold
pKd [24, 26]: below the threshold
pKd [25, 26]: below the threshold

SRSRRRETAL [HPV33-E6_-2P, P06427]
pKd [1, 27]: below the threshold
pKd [2, 27]: below the threshold
pKd [3, 27]: below the threshold
pKd [4, 27]: below the threshold
pKd [5, 27]: below the threshold
pKd [6, 27]: below the threshold
pKd [7, 27]: below the threshold
pKd [8, 27]: below the threshold
pKd [9, 27]: below the threshold
pKd [10, 27]: below the threshold
pKd [11, 27]: below the threshold
pKd [12, 27]: 4.08
pKd [13, 27]: 3.73
pKd [14, 27]: 4.02
pKd [15, 27]: below the threshold
pKd [16, 27]: below the threshold
pKd [17, 27]: below the threshold
pKd [18, 27]: below the threshold
pKd [19, 27]: below the threshold
pKd [20, 27]: below the threshold
pKd [21, 27]: below the threshold
pKd [22, 27]: below the threshold
pKd [23, 27]: below the threshold
pKd [24, 27]: below the threshold
pKd [25, 27]: below the threshold

DYSNLRETDI [ADRA1D, P25100]
pKd [1, 26]: 3.8
pKd [2, 26]: below the threshold
pKd [3, 26]: below the threshold
pKd [4, 26]: 4.54
pKd [5, 26]: below the threshold
pKd [6, 26]: below the threshold
pKd [7, 26]: below the threshold
pKd [8, 26]: 5.71
pKd [9, 26]: below the threshold
pKd [10, 26]: below the threshold
pKd [11, 26]: 5.02
pKd [12, 26]: 4.05
pKd [13, 26]: below the threshold
pKd [14, 26]: 3.91
pKd [15, 26]: below the threshold
pKd [16, 26]: below the threshold
pKd [17, 26]: below the threshold
pKd [18, 26]: 3.69
pKd [19, 26]: below the threshold
pKd [20, 26]: below the threshold
pKd [21, 26]: 3.62
pKd [22, 26]: below the threshold
pKd [23, 26]: below the threshold
pKd [24, 26]: below the threshold
pKd [25, 26]: below the threshold

GVHSNDHSVV [LPAR1, Q92633]
pKd [1, 26]: below the threshold
pKd [2, 26]: below the threshold
pKd [3, 26]: 3.61
pKd [4, 26]: 4.01
pKd [5, 26]: below the threshold
pKd [6, 26]: 3.58
pKd [7, 26]: below the threshold
pKd [8, 26]: 3.68
pKd [9, 26]: 3.59
pKd [10, 26]: below the threshold
pKd [11, 26]: below the threshold
pKd [12, 26]: below the threshold
pKd [13, 26]: below the threshold
pKd [14, 26]: below the threshold
pKd [15, 26]: below the threshold
pKd [16, 26]: below the threshold
pKd [17, 26]: below the threshold
pKd [18, 26]: below the threshold
pKd [19, 26]: below the threshold
pKd [20, 26]: below the threshold
pKd [21, 26]: 3.64
pKd [22, 26]: below the threshold
pKd [23, 26]: 3.48
pKd [24, 26]: below the threshold
pKd [25, 26]: below the threshold
